# In US20210101998A1 (Pfizer, published 2021):
# Where two headings read alike, the source gives them in different places.
# T1: rabTFPI K1K2 (rabbit, limits assumed)
# T1 construct: also called Rabbit TFPI K1K2; rabbit TFPI
# T1 chain: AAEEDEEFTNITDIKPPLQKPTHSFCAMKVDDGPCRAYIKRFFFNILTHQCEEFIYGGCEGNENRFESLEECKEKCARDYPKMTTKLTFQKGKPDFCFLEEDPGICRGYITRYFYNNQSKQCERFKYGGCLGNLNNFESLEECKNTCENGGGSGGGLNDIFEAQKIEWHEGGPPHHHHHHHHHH
# T2: murTFPI K1K2 (mouse)
# T2 construct: also called Mouse TFPI K1K2; mouse TFPI
# T2 chain: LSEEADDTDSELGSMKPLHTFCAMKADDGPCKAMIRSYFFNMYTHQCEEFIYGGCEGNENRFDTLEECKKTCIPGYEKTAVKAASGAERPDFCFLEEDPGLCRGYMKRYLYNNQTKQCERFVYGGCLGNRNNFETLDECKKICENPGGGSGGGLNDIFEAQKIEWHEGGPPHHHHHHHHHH
# Legend:
# [1] = target: T3, humTFPI K1K2 (human); assay: SPR, antibody ligand, TFPI analyte
# T3 construct: Biotinylated on the AviTag for ELISA; also called Human TFPIα K1K2; humTFPI K1K2-aviHis10
# [2] = target: T1, rabTFPI K1K2; assay: SPR, antibody ligand, TFPI analyte
# [3] = target: T3, humTFPI K1K2; assay: cell-based or functional assay
# [4] = target: T3, humTFPI K1K2; assay: ELISA, biotinylated TFPI on streptavidin plate
# Protocol: (§1) Purified anti-TFPI antibodies were diluted to 1 ug/ml in ELISA assay buffer, then serially diluted three-fold to generate an eight-point dilution series. The diluted antibodies were added at a volume of 100 uL per well. The plates were incubated at room temperature for 2 hours. After washing the plates with PBS/0.05% Tween 20, the plates were incubated with a goat anti-mouse IgG-Fc polyclonal antibody conjugated with horseradish peroxidase (Pierce) at 1:10,000 dilution. After 1 hour of incubation, bound antibody was detected with the addition of a TMB substrate solution. Absorbances were read a 450 nm, and the data were analyzed by GraphPad Prism software.
# [5] = target: T1, rabTFPI K1K2; assay: ELISA, biotinylated TFPI on streptavidin plate
# Protocol: as §1
# [6] = target: T3, humTFPI K1K2; assay: cell-based or functional assay; remark: listed apart in the source
# [7] = target: T3, humTFPI K1K2; assay: SPR, antibody ligand, TFPI analyte; remark: listed apart in the source
# Protocol: The flow cells were activated by injecting a 1:1 mixture of 400 mM 1-Ethyl-3-(3-dimethylaminopropyl) carbodiimide hydrochloride (EDC) and N-hydroxysuccinimide (NHS) for 7 minutes at a flow rate of 10 μl/minute. Anti-human IgG antibody was diluted to 25 μg/ml in 10 mM Sodium Acetate pH 5.0 and injected over all flow cells for 7 minutes at 10 ul/minute. All flow cells were blocked with 1 M Ethanolamine-HCL (ETH) for 7 minutes at 10 μl/minute. Final immobilization level of the capture antibody was approximately 10,000 resonance units (RU). The running buffer for immobilization and kinetics was 10 mM HEPES pH 7.4, 150 mM NaCl, 3 mM EDTA, 0.05% (v/v) Tween-20 (HBS-EP+). […] Flow cell 1 was used as a reference surface. […] At the end of each cycle, the entire anti-IgG surface was regenerated by a 60 second pulse of 3 M MgCl2. Kinetic assays were conducted at 25° C. at a collection rate of 10 Hz on a BIAcore T200 instrument (GE Healthcare). Rate constants and affinities were determined by fitting the data to a 1:1 model in BIAcore T200 Evaluation software version 1.0 (GE).
# [8] = target: T3, humTFPI K1K2; assay: ELISA, biotinylated TFPI on streptavidin plate; remark: listed apart in the source
# [9] = target: T1, rabTFPI K1K2; assay: ELISA, biotinylated TFPI on streptavidin plate
# [10] = target: T3, humTFPI K1K2; assay: SPR, antibody ligand, TFPI analyte; remark: listed apart in the source
# [11] = target: T2, murTFPI K1K2; assay: SPR, antibody ligand, TFPI analyte
# [12] = target: T3, humTFPI K1K2; assay: cell-based or functional assay; remark: listed apart in the source
binder,measurement,setting,value
"4D8.b1 (antibody, mouse IgG1, kappa, Mouse monoclonal antibody purified from a hybridoma subclone; also called mouse 4d8.b1; TFPI 4D8) light: DIVMTQSHKFMSTSVGDRVSITCKASQDVHTAVAWYQQKPGQSPRLLIYWASTRHTGVPDRFTGCGSGTDYTLTISSVQAEDLALYYCQQHYTTPYTFGGGTKLEMKADAAPTVSIFPPSSEQLTSGGASVVCFLNNFYPKDINVKWKIDGSERQNGVLNSWTDQDSKDSTYSMSSTLTLTKDEYERHNSYTCEATHKTSTSPIVKSFNRNEC heavy: EVLLQQSGPELVKPGASVKIPCKASGYTFTDYNLDWVKQSHGKSLEWIGDINPINGATLYNQKFKGKATLTVDQSSSTAYMELRSLTSEDTAVYYCSIYYGDYDAMDYWGQGASVTVSSAKTTPPSVYPLAPGSAAQTNSMVTLGCLVKGYFPEPVTVTWNSGSLSSGVHTFPAVLQSDLYTLSSSVTVPSSTWPSETVTCNVAHPASSTKVDKKIVPRDCGCKPCICTVPEVSSVFIFPPKPKDVLTITLTPKVTCVVVDISKDDPEVQFSWFVDDVEVHTAQTQPREEQFNSTFRSVSELPIMHQDWLNGKEFKCRVNSAAFPAPIEKTISKTKGRPKAPQVYTIPPPKEQMAKDKVSLTCMITDFFPEDITVEWQWNGQPAENYKNTQPIMDTDGSYFVYSKLNVQKSNWEAGNTFTCSVLHEGLHNHHTEKSLSHSPGK",Kd,[1],1.19 nM
same,koff,[1],0.00114 s⁻¹
same,kon,[1],958000 M⁻¹ s⁻¹
same,Kd,[2],0.63 nM
same,koff,[2],0.00126 s⁻¹
same,kon,[2],2.01e+06 M⁻¹ s⁻¹
same,FXa EC50,[3],5.9 nM
same,FXa-FVIIa EC50,[3],6.67 nM
same,EC50,[4],0.0959 nM
same,EC50,[5],0.0976 nM
same,FXa EC50,[6],4.15 nM
same,FXa-FVIIa EC50,[6],3.5 nM
"7A4.D9 (antibody, mouse IgG1, kappa, V domains shown, Mouse hybridoma antibody; also called mouse 7A4.D9) VH: EVQLQQSGPELVKPGASVKMSCKASGYTFTSYVMHWVKQKPGQGLEWIGYLNPYNDGTKYNEKFKGKASLISDKSSSTVYMELSSLTSEDSAVYYCATTLLYAMDYWGQGSSVTVSS VL: DIVLTQSPASLAVSLGQRATISCRASKSVSTSGYTYMHWYQQKPGQPPKLLIYLASNLESGVPARFSGSGSGTDFTLNIHPVEEEDAAAYYCQHIRELPFTFGSGTKLEIKA",Kd,[1],6.22 nM
same,koff,[1],0.00921 s⁻¹
same,kon,[1],1.48e+06 M⁻¹ s⁻¹
same,Kd,[2],3.55 nM
same,koff,[2],0.0188 s⁻¹
same,kon,[2],5.3e+06 M⁻¹ s⁻¹
same,FXa EC50,[3],22.3 nM
same,FXa-FVIIa EC50,[3],9.35 nM
same,EC50,[4],0.0887 nM
same,EC50,[5],0.0887 nM
"4D8-Vk1.0 × VH1.0 (antibody, human IgG1, kappa, V domains shown, Humanized 4D8 variant) VH: EVQLVESGGGLVQPGGSLRLSCAASGYTFTDYNLDWVRQAPGKGLEWVADINPINGATLYNQKFKGRFTISRDNAKNSLYLQMNSLRAEDTAVYYCARYYGDYDAMDYWGQGTLVTVSS VL: DIQMTQSPSSLSASVGDRVTITCKASQDVHTAVAWYQQKPGKAPKLLIYWASTRHTGVPSRFSGSGSGTDFTLTISSLQPEDFATYYCQQHYTTPYTFGQGTKLEIKR",Kd,[7],6.94 nM
same,koff,[7],0.00047 s⁻¹
same,kon,[7],67700 M⁻¹ s⁻¹
same,EC50,[8],0.0772 nM
same,EC50,[9],0.0785 nM
"4D8-Vk1.0 × VH1.3 (antibody, human IgG1, kappa, V domains shown, Humanized 4D8 variant) VH: EVQLVESGGGLVQPGGSLRLSCAASGYTFTDYNLDWVRQAPGKGLEWVADINPINGATLYNQKFKGRATISRDNAKNSLYLQMNSLRAEDTAVYYCARYYGDYDAMDYWGQGTLVTVSS VL: DIQMTQSPSSLSASVGDRVTITCKASQDVHTAVAWYQQKPGKAPKLLIYWASTRHTGVPSRFSGSGSGTDFTLTISSLQPEDFATYYCQQHYTTPYTFGQGTKLEIKR",Kd,[7],7.19 nM
same,koff,[7],0.000571 s⁻¹
same,kon,[7],79500 M⁻¹ s⁻¹
same,EC50,[8],0.0822 nM
same,EC50,[9],0.0556 nM
"4D8-Vk1.1 × VH1.3 (antibody, human IgG1, kappa, V domains shown, Humanized 4D8 variant) VH: EVQLVESGGGLVQPGGSLRLSCAASGYTFTDYNLDWVRQAPGKGLEWVADINPINGATLYNQKFKGRATISRDNAKNSLYLQMNSLRAEDTAVYYCARYYGDYDAMDYWGQGTLVTVSS VL: DIQMTQSPSSLSASVGDRVTITCKASQDVHTAVAWYQQKPGKAPKLLIYWASTRHTGVPSRFSGSGSGTDYTLTISSLQPEDFATYYCQQHYTTPYTFGQGTKLEIKR",Kd,[7],0.823 nM
same,koff,[7],0.000131 s⁻¹
same,kon,[7],159000 M⁻¹ s⁻¹
same,EC50,[8],0.0651 nM
same,EC50,[9],0.0511 nM
"4D8-Vk1.0 × VH1.4 (antibody, human IgG1, kappa, V domains shown, Humanized 4D8 variant) VH: EVQLVESGGGLVQPGGSLRLSCAASGYTFTDYNLDWVRQAPGKGLEWVADINPINGATLYNQKFKGRFTISRDQAKNSLYLQMNSLRAEDTAVYYCARYYGDYDAMDYWGQGTLVTVSS VL: DIQMTQSPSSLSASVGDRVTITCKASQDVHTAVAWYQQKPGKAPKLLIYWASTRHTGVPSRFSGSGSGTDFTLTISSLQPEDFATYYCQQHYTTPYTFGQGTKLEIKR",Kd,[7],11.1 nM
same,koff,[7],0.000835 s⁻¹
same,kon,[7],75500 M⁻¹ s⁻¹
same,EC50,[8],0.056 nM
same,EC50,[9],0.0426 nM
"4D8-Vk1.0 × VH1.1 (antibody, human IgG1, kappa, V domains shown, Humanized 4D8 variant) VH: EVQLVESGGGLVQPGGSLRLSCAASGYTFTDYNLDWVRQAPGKGLEWVGDINPINGATLYNQKFKGRATISVDQAKNSAYLQMNSLRAEDTAVYYCARYYGDYDAMDYWGQGTLVTVSS VL: DIQMTQSPSSLSASVGDRVTITCKASQDVHTAVAWYQQKPGKAPKLLIYWASTRHTGVPSRFSGSGSGTDFTLTISSLQPEDFATYYCQQHYTTPYTFGQGTKLEIKR",Kd,[7],25.4 nM
same,koff,[7],0.00154 s⁻¹
same,kon,[7],60600 M⁻¹ s⁻¹
same,EC50,[8],0.0884 nM
same,EC50,[9],0.0705 nM
"4D8-Vk1.0 × VH1.2 (antibody, human IgG1, kappa, V domains shown, Humanized 4D8 variant) VH: EVQLVESGGGLVQPGGSLRLSCAASGYTFTDYNLDWVRQAPGKGLEWVGDINPINGATLYNQKFKGRFTISRDNAKNSLYLQMNSLRAEDTAVYYCARYYGDYDAMDYWGQGTLVTVSS VL: DIQMTQSPSSLSASVGDRVTITCKASQDVHTAVAWYQQKPGKAPKLLIYWASTRHTGVPSRFSGSGSGTDFTLTISSLQPEDFATYYCQQHYTTPYTFGQGTKLEIKR",Kd,[7],0.695 nM
same,koff,[7],0.000165 s⁻¹
same,kon,[7],238000 M⁻¹ s⁻¹
same,EC50,[8],0.0758 nM
same,EC50,[9],0.0422 nM
"4D8-Vk1.1 × VH1.0 (antibody, human IgG1, kappa, V domains shown, Humanized 4D8 variant) VH: EVQLVESGGGLVQPGGSLRLSCAASGYTFTDYNLDWVRQAPGKGLEWVADINPINGATLYNQKFKGRFTISRDNAKNSLYLQMNSLRAEDTAVYYCARYYGDYDAMDYWGQGTLVTVSS VL: DIQMTQSPSSLSASVGDRVTITCKASQDVHTAVAWYQQKPGKAPKLLIYWASTRHTGVPSRFSGSGSGTDYTLTISSLQPEDFATYYCQQHYTTPYTFGQGTKLEIKR",EC50,[8],0.0429 nM
same,EC50,[9],0.0451 nM
"4D8-Vk1.1 × VH1.1 (antibody, human IgG1, kappa, V domains shown, Humanized 4D8 variant) VH: EVQLVESGGGLVQPGGSLRLSCAASGYTFTDYNLDWVRQAPGKGLEWVGDINPINGATLYNQKFKGRATISVDQAKNSAYLQMNSLRAEDTAVYYCARYYGDYDAMDYWGQGTLVTVSS VL: DIQMTQSPSSLSASVGDRVTITCKASQDVHTAVAWYQQKPGKAPKLLIYWASTRHTGVPSRFSGSGSGTDYTLTISSLQPEDFATYYCQQHYTTPYTFGQGTKLEIKR",Kd,[7],0.832 nM
same,koff,[7],0.000161 s⁻¹
same,kon,[7],193000 M⁻¹ s⁻¹
same,EC50,[8],0.0818 nM
same,EC50,[9],0.0788 nM
"4D8-Vk1.1 × VH1.2 (antibody, human IgG1, kappa, V domains shown, Humanized 4D8 variant) VH: EVQLVESGGGLVQPGGSLRLSCAASGYTFTDYNLDWVRQAPGKGLEWVGDINPINGATLYNQKFKGRFTISRDNAKNSLYLQMNSLRAEDTAVYYCARYYGDYDAMDYWGQGTLVTVSS VL: DIQMTQSPSSLSASVGDRVTITCKASQDVHTAVAWYQQKPGKAPKLLIYWASTRHTGVPSRFSGSGSGTDYTLTISSLQPEDFATYYCQQHYTTPYTFGQGTKLEIKR",Kd,[7],0.627 nM
same,koff,[7],9.49e-05 s⁻¹
same,kon,[7],151000 M⁻¹ s⁻¹
same,EC50,[8],0.059 nM
same,EC50,[9],0.0783 nM
"6B7.c5 (antibody, mouse IgG1, kappa, V domains shown, Mouse hybridoma antibody; also called mouse 6b7.c5) VH: EVLLQQSGPELVKPGSSVKIPCKASGYTFTDYTMDWVKQSHGKSLEWIGDINPSNGGSIYNRKFKGKATLTVDKSSSTAYMELRSLTSEDTAVYYCARMHYNYDGFPYWGQGTLVTVSA VL: DIVMTQSHKFMSTSVGDRVSITCKASQDVITAVAWYQQKPGQSPKLLIYWASTRHTGVPVRFTGSGSGTDYTLTIISVQAEDLALYYCQQHYSTPYTFGGGTKLEIKA",Kd,[1],6.58 nM
same,koff,[1],0.00363 s⁻¹
same,kon,[1],552000 M⁻¹ s⁻¹
same,Kd,[2],4.95 nM
same,koff,[2],0.00564 s⁻¹
same,kon,[2],1.14e+06 M⁻¹ s⁻¹
same,FXa EC50,[3],13.9 nM
same,FXa-FVIIa EC50,[3],12.1 nM
same,EC50,[4],0.121 nM
same,EC50,[5],0.129 nM
"TFPI-3 (antibody, human IgG1, kappa, V domains shown, Human IgG1-3M from phage display; also called mAb-TFPI-3) VH: not shown VL: AIQLTQSPSSLSASVGDRVTITCRASQGISSSLAWYQQKPGKAPKLLIYAASTLQSGVPSRFSGSGSGTDFTLTISSLQPEDFATYYCQQLDSYPLSFGQGTKLEIKR",Kd,[10],27.1 nM
same,koff,[10],0.0017 s⁻¹
same,kon,[10],62500 M⁻¹ s⁻¹
same,Kd,[11],3.81 nM
same,koff,[11],0.000824 s⁻¹
same,kon,[11],215000 M⁻¹ s⁻¹
same,FXa EC50,[12],208 nM
same,FXa-FVIIa EC50,[12],37.4 nM
"TFPI-26 (antibody, human IgG1, lambda, V domains shown, Human IgG1-3M from phage display; also called mAb-TFPI-26) VH: not shown VL: QSVLTQPPSLSGAPGQRVTISCTGSSSNLGADYDVQWYQQLPGTAPKLLIFGNNNRPSGVPDRFSGSRSGTSASLAITGLQAEDEANYYCQSYDRSLSGSMVFGGGTKLTVLG",Kd,[10],5.79 nM
same,koff,[10],0.00118 s⁻¹
same,kon,[10],205000 M⁻¹ s⁻¹
same,Kd,[11],3.68 nM
same,koff,[11],0.00476 s⁻¹
same,kon,[11],1.29e+06 M⁻¹ s⁻¹
same,FXa EC50,[12],12.8 nM
same,FXa-FVIIa EC50,[12],9.6 nM
